Data published in patent US20100272750A1.

Assays:
[1] = biological target: HLA DRB1*1302 (human); assay: competition with 125I probe peptide, purified HLA
[2] = biological target: HLA DRB1*0701 (human); assay: competition with 125I probe peptide, purified HLA
[3] = biological target: HLA DRB1*0802 (human); assay: competition with 125I probe peptide, purified HLA
[4] = biological target: HLA DRB1*1501 (human); assay: competition with 125I probe peptide, purified HLA
[5] = biological target: HLA DRB1*0405 (human); assay: competition with 125I probe peptide, purified HLA
[6] = biological target: HLA DRB5*0101 (human); assay: competition with 125I probe peptide, purified HLA
[7] = biological target: HLA DRB1*1101 (human); assay: competition with 125I probe peptide, purified HLA
[8] = biological target: HLA DRB1*0301 (human); assay: competition with 125I probe peptide, purified HLA
[9] = biological target: HLA DRB1*0901 (human); assay: competition with 125I probe peptide, purified HLA
[10] = biological target: HLA DRB1*0404 (human); assay: competition with 125I probe peptide, purified HLA
[11] = biological target: HLA DRB1*0401 (human); assay: competition with 125I probe peptide, purified HLA
[12] = biological target: HLA DRB1*0101 (human); assay: competition with 125I probe peptide, purified HLA
[13] = biological target: HLA DRB4*0101 (human); assay: competition with 125I probe peptide, purified HLA
[14] = biological target: HLA A0203 (human); assay: 125I-probe competition, purified HLA
[15] = biological target: HLA A0202 (human); assay: 125I-probe competition, purified HLA
[16] = biological target: HLA A0201 (human); assay: 125I-probe competition, purified HLA
[17] = biological target: HLA A6802 (human); assay: 125I-probe competition, purified HLA
[18] = biological target: HLA A0206 (human); assay: 125I-probe competition, purified HLA
[19] = biological target: HLA A3301 (human); assay: 125I-probe competition, purified HLA
[20] = biological target: HLA A6801 (human); assay: 125I-probe competition, purified HLA
[21] = biological target: HLA A1101 (human); assay: 125I-probe competition, purified HLA
[22] = biological target: HLA A3101 (human); assay: 125I-probe competition, purified HLA
[23] = biological target: HLA A0301 (human); assay: 125I-probe competition, purified HLA
[24] = biological target: HLA DRB1*1201 (human); assay: competition with 125I probe peptide, purified HLA
[25] = biological target: HLA DRB1*0701 (human); assay: competition with 125I probe peptide, purified HLA; crude peptide batch
[26] = biological target: HLA DRB1*0802 (human); assay: as above
[27] = biological target: HLA DRB1*1501 (human); assay: as above
[28] = biological target: HLA DRB1*0405 (human); assay: as above
[29] = biological target: HLA DRB1*1101 (human); assay: as above
[30] = biological target: HLA DRB1*1201 (human); assay: as above
[31] = biological target: HLA DRB1*0901 (human); assay: as above
[32] = biological target: HLA DRB1*0404 (human); assay: as above
[33] = biological target: HLA DRB1*0401 (human); assay: as above
[34] = biological target: HLA DRB1*0101 (human); assay: as above
[35] = biological target: HLA DRB4*0101 (human); assay: as above

Binder: DWVMAIFGVNPTVAEGF (modifications not checked) [HPV45.E1.228 HTL epitope]
- IC50 [1]: 68 nM
- IC50 [2]: 52 nM
- IC50 [3]: 4260 nM
- IC50 [4]: 108 nM
- IC50 [5]: 92 nM
- IC50 [6]: 387 nM
- IC50 [7]: 4960 nM
- IC50 [8]: 3750 nM
- IC50 [9]: 17.9 µM
- IC50 [10]: 0.02 µM
- IC50 [11]: 91 nM
- IC50 [12]: 487 nM
- IC50 [13]: 571 nM

Binder: WKHIRLECVLMYKAR (modifications not checked) [HPV31.E2.033 HTL epitope]
- IC50 [1]: 54 nM
- IC50 [2]: 16400 nM
- IC50 [3]: 476 nM
- IC50 [4]: 134 nM
- IC50 [5]: 71 nM
- IC50 [6]: 412 nM
- IC50 [7]: 81 nM
- IC50 [8]: 146 nM
- IC50 [9]: 11.8 µM
- IC50 [10]: 0.307 µM
- IC50 [11]: 263 nM
- IC50 [12]: 1440 nM
- IC50 [13]: 102 nM

Binder: YTNWKFIYL (modifications not checked) [HPV31.E2.131]
- IC50 [14]: 31 nM
- IC50 [15]: 14 nM
- IC50 [16]: 69 nM
- IC50 [17]: 146 nM
- IC50 [18]: 84 nM

Binder: ATMCRHYKR (modifications not checked) [HPV16.E1.406]
- IC50 [19]: 17 nM
- IC50 [20]: 35 nM
- IC50 [21]: 14 nM
- IC50 [22]: 10 nM
- IC50 [23]: 90 nM

Binder: AVMCRHYKR (modifications not checked) [HPV45.E1.399]
- IC50 [19]: 24 nM
- IC50 [20]: 29 nM
- IC50 [21]: 38 nM
- IC50 [22]: 52 nM
- IC50 [23]: 311 nM

Binder: FHSIAGQYRGQCNTC (modifications not checked) [HPV45.E6.127 HTL epitope]
- IC50 [2]: 2400 nM
- IC50 [3]: 7640 nM
- IC50 [4]: 574 nM
- IC50 [5]: 358 nM
- IC50 [6]: 43 nM
- IC50 [7]: 416 nM
- IC50 [24]: 10.1 µM
- IC50 [9]: 1.99 µM
- IC50 [10]: 3.31 µM
- IC50 [11]: 8.6 nM
- IC50 [12]: 107 nM
- IC50 [13]: 1300 nM

Binder: YVVWDSIYYI (modifications not checked) [HPV45.E2.137]
- IC50 [14]: 248 nM
- IC50 [15]: 27 nM
- IC50 [16]: 77 nM
- IC50 [17]: 30 nM
- IC50 [18]: 20 nM

Binder: NGWFYVEAVIDRQTG (modifications not checked) [HPV31.E1.15 HTL epitope]
- IC50 [2]: 1460 nM
- IC50 [5]: 178 nM
- IC50 [6]: 1200 nM
- IC50 [8]: 2800 nM
- IC50 [9]: 3.67 µM
- IC50 [10]: 18.8 µM
- IC50 [11]: 845 nM
- IC50 [12]: 1860 nM
- IC50 [13]: 627 nM

Binder: LQAIELQLTLETIYN (modifications not checked) [HPV16.E2.070 HTL epitope]
- IC50 [25]: 3.28 µM
- IC50 [26]: 7.61 µM
- IC50 [27]: 688 nM
- IC50 [28]: 384 nM
- IC50 [29]: 4.38 µM
- IC50 [30]: 268 nM
- IC50 [31]: 1430 nM
- IC50 [32]: 282 nM
- IC50 [33]: 37 nM
- IC50 [34]: 42 nM
- IC50 [35]: 2 nM

Binder: FIYIPLFVI (modifications not checked) [HPV31.E5.66]
- IC50 [14]: 47 nM
- IC50 [15]: 97 nM
- IC50 [16]: 26 nM
- IC50 [17]: 157 nM
- IC50 [18]: 8.1 nM

Binder: SVICFVNSK (modifications not checked) [HPV16.E1.497]
- IC50 [19]: 51 nM
- IC50 [20]: 5.4 nM
- IC50 [21]: 2.2 nM
- IC50 [22]: 25 nM
- IC50 [23]: 109 nM

Binder: VAWDSVYYM (modifications not checked) [HPV18.E2.136]
- IC50 [14]: 1330 nM
- IC50 [15]: 603 nM
- IC50 [16]: 172 nM
- IC50 [17]: 5150 nM
- IC50 [18]: 790 nM

Binder: STAAALYWYR (modifications not checked) [HPV31.E1.294]
- IC50 [19]: 47 nM
- IC50 [20]: 12 nM
- IC50 [21]: 10 nM
- IC50 [22]: 5.6 nM
- IC50 [23]: 198 nM

Binder: TLYAHIQCL (modifications not checked) [HPV45.E1.252]
- IC50 [14]: 6.2 nM
- IC50 [15]: 4.9 nM
- IC50 [16]: 34 nM
- IC50 [17]: 1610 nM
- IC50 [18]: 417 nM

Binder: WKHMRLECAIYYKAR (modifications not checked) [HPV16.E2.033 HTL epitope]
- IC50 [1]: 248 nM
- IC50 [2]: 504 nM
- IC50 [3]: 90 nM
- IC50 [4]: 1390 nM
- IC50 [5]: 557 nM
- IC50 [6]: 280 nM
- IC50 [7]: 2400 nM
- IC50 [8]: 437 nM
- IC50 [9]: 6.33 µM
- IC50 [10]: 6.86 µM
- IC50 [11]: 245 nM
- IC50 [12]: 701 nM
- IC50 [13]: 766 nM

Binder: VVLLLVRYK (modifications not checked) [HPV16.E1.274]
- IC50 [19]: 6.1 nM
- IC50 [20]: 76 nM
- IC50 [21]: 4.1 nM
- IC50 [22]: 0.1 nM
- IC50 [23]: 6.3 nM

Binder: LDLQPETTDLYCYEQ (modifications not checked) [HPV16.E7.13 HTL epitope]
- IC50 [8]: 590 nM
- IC50 [11]: 1900 nM
- IC50 [13]: 17 nM

Binder: STAAALYWYK (modifications not checked) [HPV16.E1.314]
- IC50 [19]: 128 nM
- IC50 [20]: 6 nM
- IC50 [21]: 2 nM
- IC50 [22]: 35 nM
- IC50 [23]: 5 nM

Binder: QRFHNIRGRWTGRCM (modifications not checked) [HPV16.E6.130 HTL epitope]
- IC50 [1]: 5310 nM
- IC50 [2]: 277 nM
- IC50 [3]: 894 nM
- IC50 [4]: 17200 nM
- IC50 [5]: 4470 nM
- IC50 [6]: 919 nM
- IC50 [7]: 574 nM
- IC50 [24]: 14.6 µM
- IC50 [10]: 4.11 µM
- IC50 [11]: 2900 nM
- IC50 [12]: 36 nM
- IC50 [13]: 4550 nM

Binder: FLLCFCVLL (modifications not checked) [HPV31.E5.15]
- IC50 [14]: 34 nM
- IC50 [15]: 13 nM
- IC50 [16]: 9.6 nM
- IC50 [17]: 237 nM
- IC50 [18]: 2.6 nM

Binder: ISFAGIVTK (modifications not checked) [HPV31.E2.205]
- IC50 [19]: 4370 nM
- IC50 [21]: 1.6 nM
- IC50 [22]: 115 nM
- IC50 [23]: 17 nM

Binder: STWHWTGCNK (modifications not checked) [HPV45.E2.322]
- IC50 [19]: 428 nM
- IC50 [20]: 18 nM
- IC50 [21]: 2.8 nM
- IC50 [22]: 54 nM
- IC50 [23]: 14 nM

Binder: TVYVFCFLL (modifications not checked) [HPV18.E5.51]
- IC50 [14]: 769 nM
- IC50 [15]: 587 nM
- IC50 [16]: 175 nM
- IC50 [17]: 41 nM
- IC50 [18]: 26 nM

Binder: MVMLMLVRFK (modifications not checked) [HPV31.E1.253]
- IC50 [19]: 20 nM
- IC50 [20]: 10 nM
- IC50 [23]: 10 nM

Binder: KVSEFRWYRY (modifications not checked) [HPV31.E6.72]
- IC50 [19]: 338 nM
- IC50 [20]: 192 nM
- IC50 [21]: 25 nM
- IC50 [22]: 3 nM
- IC50 [23]: 213 nM
